Data: publication PMC13038415 (Nature Chemical Biology, 2026)
Residue numbers refer to the chain shown, from its start. Names and notes keep the numbering of the source. Values joined by “and” are separate entries in the source; they are usually repeats but may differ in a detail not shown here. Equal values may be shown once. Read-outs that look alike come from different tables or passages of the source.

B1: Pac1 (full-length; yeast homolog of Lis1) (natural protein)
chain: MTNWQQQLPLTDTQKNELDKSVLRYLNWNYKQTVRHEHAQDYESVRHAIVTLSGFLLQESVDRQEFISNNDTSNESMVDIDELLLPKKWNSIVRLQKKIIELEQNTETLVSQIKDLNTQVSELAQFKPTTSNGTSAHNVLKWIPRNLPSCLINVESSVTSVKLHPNLPIVFVATDHGKLYAFDLFNYTIPLASLQSHTKAITSMDVLFTNYTNSSKKNYLVIVTASKDLQIHVFKWVSEECKFQQIRSLLGHEHIVSAVKIWQKNNDVHIASCSRDQTVKIWDFHNGWSLKTFQPHSQWVRSIDVLGDYIISGSHDTTLRLTHWPSGNGLSVGTGHEFPIEKVKFIHFIEDSPEIRFRTPSTDRYKNWGMQYCVSASRDRTIKIWEIPLPTLMAHRAPIPNPTDSNFRCVLTLKGHLSWVRDISIRGQYLFSCADDKSVRCWDLNTGQCLHVWEKLHTGFVNCLDLDVDFDSNVTPRQMMVTGGLDCKSNVFMR
B2: Pac1 site^linker mutant (T403A, S405A, N406A, R320A, V332A) (natural protein)
chain: B1 chain with R320A, V332A, T403A, S405A, N406A

How the values were obtained:
Test in all cases: mass photometry
[1] = biological target: T1, full-length dynein complex AAA3^WA (dynein-K2424A) (yeast, UniProt P36022 1-4092; P40960 1-533; Q04949 1-312; Q02647 1-92, K2424A)
T1 sequence (P36022 whole entry K2424A, chain 1 of 4): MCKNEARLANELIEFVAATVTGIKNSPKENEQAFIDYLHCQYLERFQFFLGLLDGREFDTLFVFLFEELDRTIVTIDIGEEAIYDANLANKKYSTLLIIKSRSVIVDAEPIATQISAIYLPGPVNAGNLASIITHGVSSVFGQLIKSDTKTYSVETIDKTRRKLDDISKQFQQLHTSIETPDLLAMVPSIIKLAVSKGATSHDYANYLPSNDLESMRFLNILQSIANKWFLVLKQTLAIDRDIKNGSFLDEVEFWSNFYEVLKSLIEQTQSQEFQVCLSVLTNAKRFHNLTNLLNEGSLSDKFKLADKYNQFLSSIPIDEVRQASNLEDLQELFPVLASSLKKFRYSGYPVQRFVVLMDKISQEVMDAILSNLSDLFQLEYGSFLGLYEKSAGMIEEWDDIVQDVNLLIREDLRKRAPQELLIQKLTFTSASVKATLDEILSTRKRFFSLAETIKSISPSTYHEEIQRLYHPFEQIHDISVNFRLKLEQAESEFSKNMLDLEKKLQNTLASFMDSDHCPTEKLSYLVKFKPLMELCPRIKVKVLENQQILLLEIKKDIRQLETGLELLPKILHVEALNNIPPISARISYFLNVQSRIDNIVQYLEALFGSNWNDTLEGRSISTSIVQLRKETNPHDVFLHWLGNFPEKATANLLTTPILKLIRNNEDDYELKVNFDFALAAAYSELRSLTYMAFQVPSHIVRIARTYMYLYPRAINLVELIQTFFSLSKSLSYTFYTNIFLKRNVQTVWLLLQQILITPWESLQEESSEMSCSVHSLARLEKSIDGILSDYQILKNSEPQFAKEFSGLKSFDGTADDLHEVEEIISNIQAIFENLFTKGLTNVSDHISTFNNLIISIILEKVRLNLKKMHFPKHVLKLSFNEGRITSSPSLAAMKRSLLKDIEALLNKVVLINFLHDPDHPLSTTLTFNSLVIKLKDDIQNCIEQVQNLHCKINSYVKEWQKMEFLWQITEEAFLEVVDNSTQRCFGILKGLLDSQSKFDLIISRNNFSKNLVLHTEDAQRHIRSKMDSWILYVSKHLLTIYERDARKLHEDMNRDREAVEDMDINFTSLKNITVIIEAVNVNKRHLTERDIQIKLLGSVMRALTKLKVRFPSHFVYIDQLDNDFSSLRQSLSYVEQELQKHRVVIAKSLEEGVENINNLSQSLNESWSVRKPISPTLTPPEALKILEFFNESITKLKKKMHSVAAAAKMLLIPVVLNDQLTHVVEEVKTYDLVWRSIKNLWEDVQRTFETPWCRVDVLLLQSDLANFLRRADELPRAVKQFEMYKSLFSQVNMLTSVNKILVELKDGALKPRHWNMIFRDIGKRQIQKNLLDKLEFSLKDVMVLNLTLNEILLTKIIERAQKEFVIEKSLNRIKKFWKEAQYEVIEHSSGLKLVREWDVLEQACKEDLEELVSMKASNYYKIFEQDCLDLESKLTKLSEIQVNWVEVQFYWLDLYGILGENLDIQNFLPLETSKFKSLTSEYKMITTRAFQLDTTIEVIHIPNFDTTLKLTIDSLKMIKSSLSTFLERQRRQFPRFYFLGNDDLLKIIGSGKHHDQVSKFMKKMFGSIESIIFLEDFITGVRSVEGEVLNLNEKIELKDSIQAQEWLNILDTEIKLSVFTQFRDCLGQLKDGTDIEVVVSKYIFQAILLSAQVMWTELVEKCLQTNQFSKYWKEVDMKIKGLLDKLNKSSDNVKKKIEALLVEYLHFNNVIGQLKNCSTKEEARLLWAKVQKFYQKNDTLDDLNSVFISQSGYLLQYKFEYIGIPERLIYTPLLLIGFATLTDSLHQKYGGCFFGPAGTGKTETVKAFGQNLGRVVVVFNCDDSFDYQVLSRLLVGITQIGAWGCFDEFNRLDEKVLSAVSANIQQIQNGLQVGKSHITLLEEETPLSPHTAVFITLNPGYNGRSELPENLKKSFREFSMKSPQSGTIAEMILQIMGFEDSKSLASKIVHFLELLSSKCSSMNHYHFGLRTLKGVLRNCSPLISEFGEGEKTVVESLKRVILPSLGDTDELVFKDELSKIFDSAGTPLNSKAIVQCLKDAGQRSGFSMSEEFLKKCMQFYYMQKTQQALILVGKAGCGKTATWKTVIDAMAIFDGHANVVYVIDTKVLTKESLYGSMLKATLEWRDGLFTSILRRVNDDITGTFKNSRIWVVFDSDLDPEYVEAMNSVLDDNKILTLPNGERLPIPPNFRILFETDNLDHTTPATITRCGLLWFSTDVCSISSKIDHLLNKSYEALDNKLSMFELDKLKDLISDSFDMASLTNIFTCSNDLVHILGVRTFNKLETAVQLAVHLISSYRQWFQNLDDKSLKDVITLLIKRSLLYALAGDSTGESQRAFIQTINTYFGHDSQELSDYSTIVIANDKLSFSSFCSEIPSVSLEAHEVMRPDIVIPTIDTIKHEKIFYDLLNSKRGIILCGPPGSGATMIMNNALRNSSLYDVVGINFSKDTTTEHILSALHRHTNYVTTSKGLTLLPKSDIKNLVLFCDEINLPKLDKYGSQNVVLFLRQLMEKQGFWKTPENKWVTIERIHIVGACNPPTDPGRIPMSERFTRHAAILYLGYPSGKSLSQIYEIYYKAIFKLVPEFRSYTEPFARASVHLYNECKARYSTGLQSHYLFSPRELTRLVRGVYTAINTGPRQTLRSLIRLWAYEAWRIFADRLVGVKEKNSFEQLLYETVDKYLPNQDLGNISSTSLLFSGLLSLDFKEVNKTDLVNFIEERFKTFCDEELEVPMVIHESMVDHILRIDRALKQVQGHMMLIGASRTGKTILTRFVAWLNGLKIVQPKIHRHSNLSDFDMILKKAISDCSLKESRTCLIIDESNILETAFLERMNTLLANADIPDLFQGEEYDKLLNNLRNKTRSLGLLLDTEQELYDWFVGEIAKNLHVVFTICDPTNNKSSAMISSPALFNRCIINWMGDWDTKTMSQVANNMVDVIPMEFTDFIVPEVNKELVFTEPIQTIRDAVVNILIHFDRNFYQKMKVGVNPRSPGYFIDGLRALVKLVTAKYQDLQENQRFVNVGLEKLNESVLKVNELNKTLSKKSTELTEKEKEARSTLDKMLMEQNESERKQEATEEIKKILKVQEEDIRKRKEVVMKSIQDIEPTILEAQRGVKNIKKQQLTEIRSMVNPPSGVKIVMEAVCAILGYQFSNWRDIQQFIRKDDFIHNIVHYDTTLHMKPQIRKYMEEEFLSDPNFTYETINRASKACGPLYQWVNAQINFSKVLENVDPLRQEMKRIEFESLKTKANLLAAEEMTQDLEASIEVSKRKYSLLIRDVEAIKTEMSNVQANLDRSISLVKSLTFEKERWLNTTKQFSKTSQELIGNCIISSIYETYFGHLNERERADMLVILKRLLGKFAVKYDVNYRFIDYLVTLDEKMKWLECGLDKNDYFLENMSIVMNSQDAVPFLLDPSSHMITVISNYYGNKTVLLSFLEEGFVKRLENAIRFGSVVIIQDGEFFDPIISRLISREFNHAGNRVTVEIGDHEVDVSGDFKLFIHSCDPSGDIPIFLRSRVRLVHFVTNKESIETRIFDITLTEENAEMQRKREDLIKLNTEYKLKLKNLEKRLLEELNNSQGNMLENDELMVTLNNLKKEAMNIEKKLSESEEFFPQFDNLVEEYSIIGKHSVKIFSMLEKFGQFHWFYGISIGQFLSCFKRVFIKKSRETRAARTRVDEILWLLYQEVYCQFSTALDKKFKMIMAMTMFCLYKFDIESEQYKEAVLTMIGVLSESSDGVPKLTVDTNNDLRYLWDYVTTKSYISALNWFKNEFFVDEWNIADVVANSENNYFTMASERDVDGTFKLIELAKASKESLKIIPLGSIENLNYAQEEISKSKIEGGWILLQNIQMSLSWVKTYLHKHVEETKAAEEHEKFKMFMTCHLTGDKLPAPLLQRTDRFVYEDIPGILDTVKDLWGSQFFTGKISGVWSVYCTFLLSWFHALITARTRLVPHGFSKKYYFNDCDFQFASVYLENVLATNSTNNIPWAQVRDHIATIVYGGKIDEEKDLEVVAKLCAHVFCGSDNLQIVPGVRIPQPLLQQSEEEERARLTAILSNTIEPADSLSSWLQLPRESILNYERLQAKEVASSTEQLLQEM
T1 sequence (P40960 whole entry, chain 2 of 4): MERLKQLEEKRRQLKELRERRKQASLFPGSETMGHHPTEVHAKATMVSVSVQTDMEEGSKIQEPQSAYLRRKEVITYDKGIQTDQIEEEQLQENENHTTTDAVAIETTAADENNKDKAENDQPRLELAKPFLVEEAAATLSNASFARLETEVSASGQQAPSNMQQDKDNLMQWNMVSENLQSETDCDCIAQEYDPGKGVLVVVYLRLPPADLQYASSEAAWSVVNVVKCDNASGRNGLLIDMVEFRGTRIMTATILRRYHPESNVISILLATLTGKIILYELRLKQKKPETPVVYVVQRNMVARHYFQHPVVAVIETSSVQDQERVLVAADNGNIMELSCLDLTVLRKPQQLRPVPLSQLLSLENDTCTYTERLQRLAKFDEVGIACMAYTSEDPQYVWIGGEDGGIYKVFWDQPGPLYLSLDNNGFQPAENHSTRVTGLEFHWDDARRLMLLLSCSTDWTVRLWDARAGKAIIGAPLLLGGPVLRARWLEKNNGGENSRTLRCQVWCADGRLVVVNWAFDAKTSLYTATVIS
T1 sequence (Q04949 whole entry, chain 3 of 4): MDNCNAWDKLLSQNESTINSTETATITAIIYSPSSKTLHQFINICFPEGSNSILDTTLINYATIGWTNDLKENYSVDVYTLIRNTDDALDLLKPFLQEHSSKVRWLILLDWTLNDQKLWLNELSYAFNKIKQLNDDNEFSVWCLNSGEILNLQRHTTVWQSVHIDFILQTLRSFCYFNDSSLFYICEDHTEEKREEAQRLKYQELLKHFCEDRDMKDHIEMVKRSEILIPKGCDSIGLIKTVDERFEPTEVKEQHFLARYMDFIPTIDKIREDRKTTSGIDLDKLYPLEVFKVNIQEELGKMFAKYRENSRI
T1 sequence (Q02647 whole entry, chain 4 of 4): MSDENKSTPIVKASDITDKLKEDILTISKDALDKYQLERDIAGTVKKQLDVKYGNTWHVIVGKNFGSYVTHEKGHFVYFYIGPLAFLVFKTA

[2] = biological target: full-length dynein complex AAA3^WB (E2488Q) (yeast, UniProt P36022 1-4092; P40960 1-533; Q04949 1-312; Q02647 1-92, E2488Q)
[3] = biological target: T1, full-length dynein complex AAA3^WA …; remark: listed apart in the source
[4] = biological target: T1, full-length dynein complex AAA3^WA …; remark: listed apart in the source

| Binder | stoichiometry N [1] | stoichiometry N [2] | stoichiometry N [3] | binding result [4] |
| --- | --- | --- | --- | --- |
| B1 | 1 Pac1 dimer per dynein complex | 1 Pac1 dimer per dynein complex and 2 Pac1 dimers per dynein complex | 2 Pac1 dimers per dynein complex |  |
| B2 |  |  |  | binds |
